# Reference: the RNAGym collection of RNA variant scans (doi:10.1073/pnas.2313332121)
# B1: TPR t1 (parent)
# chain: GACCAAUCUGCCCUCAGAGCUCGAGAACAUCUUCGGAUGCAGAGGAGGCAGGCUUCGGUGGCGCGAUAGCGCCAACGUCCUCAACCUCCAAUGCAUCCCACCACAUGAUGAUGCCUGAAGAGCCUUGGUUUUUUG
# Variants of: B1
# Test: polymerase ribozyme fitness, log enrichment relative to wild type (log ratio); higher = more active; in vitro selection for triplet polymerase activity
# Method in brief: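 Mutant libraries of each subunit of a heterodimeric triplet polymerase ribozyme were built by PCR and transcribed. Each library went through one round of in vitro selection in triplicate: annealing with biotinylated primer, partner subunit and triplets, frozen incubation at −7 °C, gel excision of extended constructs, streptavidin-bead capture and RT-PCR. Input and output libraries were Illumina-sequenced; only genotypes with ≥10 input reads and ≥1 read per output were kept. Fitness is log2(genotype enrichment/wild-type enrichment), using inverse-variance-weighted replicate averages.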
row,Variant,polymerase ribozyme fitness (log ratio)
1,C102A G120A A121C C124U,-0.193
2,U109G G120A,-4.17
3,C98A U109A,-5.81
4,C102A C114A,-4.17
5,G107A U116C,-5.17
6,C104A U112G C123G,-1.23
7,A105U G120U C123U,-2.19
8,C101U G128C,-2.13
9,C97U C104U A111U C124A,-2.15
10,C98G G110A,-4.98
11,C101A G113U,-3.79
12,C102U G110C,-7.27
13,A100U U130A,-0.606
14,C102G C104U,-6.12
15,C101A U130G,-2.8
16,A108G U109A C124A,-4.41
17,C98U C99A A118U U130C,-5.55
18,U106A U116C,-0.567
19,U106C C114A G120C,-2.21
20,A105C U116C,-4.81
21,A103G C124U,-3.1

row,Variant,polymerase ribozyme fitness (log ratio)
1,U109A U112A,-4.47
2,C99U G128U,-5.25
3,C97U C101A G122C C123A U125A,-1.66
4,C104G C124U,-6.14
5,A100C U106A,-0.525
6,G107C A121U,-3.13
7,C101U G113A,-1.2
8,G107A U133G,-4.3
9,C98U U126G G128U,-2.42
10,A103U U130G,-5.63
11,C101U A111C,0.393
12,A105G U109A,-5.94
13,C104G A105U A111C G122A,-7.2
14,C101A G110U A119G,-2.89
15,G110A U133A,-1.59
16,U109A G117U,-5.72
17,G110A G113C,-4.78
18,U106G G117U,-4.18
19,C97U A118U,-2.1
20,A108G U125G,-2.24
21,C102U U125G,-1.4

row,Variant,polymerase ribozyme fitness (log ratio)
1,C97U U109A,-2.09
2,C97U G128A,-2.66
3,A105C U112C,0.139
4,C98U G120A,-0.67
5,A103G A118G C124G,-5.79
6,A105U U133A,-1.78
7,G107A A121C,-3.64
8,C101U U126G,-2.48
9,U109A C124U,-4.15
10,C97U C123A,0.00246
11,C98A C101U G110U G120U C123G U130G,-5.9
12,G110A C115G,-5.71
13,C98A C124A,-2.34
14,G110A U129C,-1.47
15,A103U A111G,-3.31
16,C102A U126G,-2.89
17,C97U C124G,1.72
18,C102U G120A,-1.2
19,C97U G120C,0.554
20,C97U G120U,-0.768
21,C97U G120A,0.391

row,Variant,polymerase ribozyme fitness (log ratio)
1,C99A G127A,-5.8
2,C104U A105C U131C,-2.36
3,C102A U109C,-6.22
4,C98A A111U G122A C124G,-6.05
5,A105C C114A A121G,-3.08
6,C102U,-1.71
7,C102A,-1.87
8,C102G,-5.93
9,C101A G110U,-3.04
10,C102A A111G C115A A118U,-4.83
11,C104U G117U,-0.481
12,A105C G120C,-1.78
13,A105C G120U,-2.25
14,C104U U106C G120U,-0.245
15,C101G G120U U129A,-3.12
16,C97U C101U C102A,-4.12
17,C104U U109G,-3.57
18,C104U G120U G135U,-0.513
19,C97U U106G C123U,-2.04
20,A100C C102G,-4.98
21,A100C C102U,-5.66
